Tests used:
Assay in all cases: Kd (EC50 corrected by depletion factor)
LRPPRC = LRPPRC (UniProt P42704)
Procedure, shortened: (§1)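 HEK293-FT lysate (2.5 mg protein/well) was treated with free RNA oligos (0 nM to 30 μM) for 1 h at 4°C, then with the same oligos on NHS-Sepharose beads for 30 min at 4°C. Bound proteins were quantified by label-free LC-MS/MS relative to the control. EC50 came from a four-parameter log-logistic fit, and Kd is EC50 times a protein-dependent depletion factor.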

CMTR1 = target: T1, CMTR1 (UniProt Q8N1G2)
T1 sequence: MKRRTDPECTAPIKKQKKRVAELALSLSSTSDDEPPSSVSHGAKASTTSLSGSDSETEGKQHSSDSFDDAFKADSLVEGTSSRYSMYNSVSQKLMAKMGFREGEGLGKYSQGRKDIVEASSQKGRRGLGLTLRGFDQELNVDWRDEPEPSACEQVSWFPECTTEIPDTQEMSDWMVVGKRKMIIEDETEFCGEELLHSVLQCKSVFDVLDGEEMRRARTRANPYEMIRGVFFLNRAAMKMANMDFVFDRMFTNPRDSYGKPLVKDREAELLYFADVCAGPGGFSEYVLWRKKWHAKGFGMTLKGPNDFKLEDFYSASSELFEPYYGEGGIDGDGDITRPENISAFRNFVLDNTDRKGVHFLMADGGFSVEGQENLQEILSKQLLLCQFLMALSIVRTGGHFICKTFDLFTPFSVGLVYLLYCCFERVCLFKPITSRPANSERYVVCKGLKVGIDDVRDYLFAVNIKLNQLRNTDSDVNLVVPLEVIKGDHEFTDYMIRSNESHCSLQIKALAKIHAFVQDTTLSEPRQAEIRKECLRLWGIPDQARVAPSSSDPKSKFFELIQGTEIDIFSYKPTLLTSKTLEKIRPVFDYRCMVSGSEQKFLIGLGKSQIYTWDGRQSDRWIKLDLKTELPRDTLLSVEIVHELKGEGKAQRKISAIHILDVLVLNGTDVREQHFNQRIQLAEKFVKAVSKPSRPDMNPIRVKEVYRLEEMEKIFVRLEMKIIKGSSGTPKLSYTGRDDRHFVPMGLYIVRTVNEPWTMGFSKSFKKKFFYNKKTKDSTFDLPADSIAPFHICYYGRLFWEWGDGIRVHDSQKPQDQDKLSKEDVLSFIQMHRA
Procedure, shortened: as §1

LSM3 = LSM3 (UniProt P62310)
Procedure, shortened: as §1

MSI1 = MSI1 (UniProt O43347)
Procedure, shortened: as §1

SYMPK = target: T2, SYMPK (UniProt Q92797)
T2 sequence: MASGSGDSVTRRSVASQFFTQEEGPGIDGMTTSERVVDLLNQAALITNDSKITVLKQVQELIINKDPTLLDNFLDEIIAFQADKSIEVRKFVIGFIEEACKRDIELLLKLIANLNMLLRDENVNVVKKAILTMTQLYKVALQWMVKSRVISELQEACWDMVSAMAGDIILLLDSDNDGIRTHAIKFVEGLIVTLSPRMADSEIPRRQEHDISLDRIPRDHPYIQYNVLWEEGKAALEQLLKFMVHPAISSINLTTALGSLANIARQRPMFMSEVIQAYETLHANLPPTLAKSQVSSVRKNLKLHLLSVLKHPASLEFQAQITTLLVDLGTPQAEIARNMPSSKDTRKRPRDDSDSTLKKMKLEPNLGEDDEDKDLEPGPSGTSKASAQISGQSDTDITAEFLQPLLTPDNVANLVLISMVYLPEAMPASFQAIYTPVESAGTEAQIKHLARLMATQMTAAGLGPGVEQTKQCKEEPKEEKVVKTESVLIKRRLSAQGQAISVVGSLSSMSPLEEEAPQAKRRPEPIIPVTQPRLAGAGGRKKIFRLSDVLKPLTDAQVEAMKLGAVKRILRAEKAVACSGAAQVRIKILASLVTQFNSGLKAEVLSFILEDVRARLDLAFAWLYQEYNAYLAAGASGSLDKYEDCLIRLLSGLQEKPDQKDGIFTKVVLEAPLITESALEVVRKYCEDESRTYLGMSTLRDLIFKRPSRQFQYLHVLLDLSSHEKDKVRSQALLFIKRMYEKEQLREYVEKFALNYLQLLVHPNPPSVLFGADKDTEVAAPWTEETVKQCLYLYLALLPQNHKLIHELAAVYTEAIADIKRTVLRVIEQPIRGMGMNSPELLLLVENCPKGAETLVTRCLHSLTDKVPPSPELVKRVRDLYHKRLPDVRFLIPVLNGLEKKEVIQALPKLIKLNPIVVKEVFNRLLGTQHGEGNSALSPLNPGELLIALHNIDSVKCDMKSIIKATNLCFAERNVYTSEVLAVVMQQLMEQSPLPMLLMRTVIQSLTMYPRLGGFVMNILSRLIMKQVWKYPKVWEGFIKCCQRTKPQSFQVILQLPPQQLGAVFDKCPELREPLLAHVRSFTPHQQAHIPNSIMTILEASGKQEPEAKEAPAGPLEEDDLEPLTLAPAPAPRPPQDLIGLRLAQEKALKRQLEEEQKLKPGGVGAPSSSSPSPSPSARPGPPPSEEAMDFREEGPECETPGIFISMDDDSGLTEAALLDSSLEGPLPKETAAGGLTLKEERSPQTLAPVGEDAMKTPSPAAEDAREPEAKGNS
Procedure, shortened: as §1

Chain of LSM3 (P62310 whole entry): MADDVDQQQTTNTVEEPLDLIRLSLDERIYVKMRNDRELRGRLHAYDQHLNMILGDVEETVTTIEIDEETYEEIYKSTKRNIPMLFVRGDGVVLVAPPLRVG
Chain of MSI1 (O43347 whole entry): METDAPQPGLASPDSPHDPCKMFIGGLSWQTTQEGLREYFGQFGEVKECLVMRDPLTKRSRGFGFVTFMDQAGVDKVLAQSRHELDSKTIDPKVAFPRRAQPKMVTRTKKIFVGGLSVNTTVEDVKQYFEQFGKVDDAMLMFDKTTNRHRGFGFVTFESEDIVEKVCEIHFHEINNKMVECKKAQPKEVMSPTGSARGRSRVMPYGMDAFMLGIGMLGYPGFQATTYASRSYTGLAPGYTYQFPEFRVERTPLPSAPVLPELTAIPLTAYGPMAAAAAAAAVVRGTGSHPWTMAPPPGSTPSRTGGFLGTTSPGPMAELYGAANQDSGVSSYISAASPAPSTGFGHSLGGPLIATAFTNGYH

Sequence | Kd (LRPPRC) | Kd (CMTR1) | Kd (LSM3) | Kd (MSI1) | Kd (SYMPK)
CUGUCCU | 1260 nM |  |  |  | 
AAUAAA | 1130 nM | 209 nM | 45 nM | 3110 nM | 12.7 nM
UAUUUAU |  | 591 nM | 307 nM | 373 nM | 254 nM

Source: the supplement of paper PMC6379048
